{"source": "patent US12715927", "key": {"[1]": {"biological_target": "extracellular domain of human LEPR with an N-terminal myc-myc tag, GPI-anchored on HEK293 cells (human) (UniProt P48357)", "sequence (P48357 22-839 limits assumed)": "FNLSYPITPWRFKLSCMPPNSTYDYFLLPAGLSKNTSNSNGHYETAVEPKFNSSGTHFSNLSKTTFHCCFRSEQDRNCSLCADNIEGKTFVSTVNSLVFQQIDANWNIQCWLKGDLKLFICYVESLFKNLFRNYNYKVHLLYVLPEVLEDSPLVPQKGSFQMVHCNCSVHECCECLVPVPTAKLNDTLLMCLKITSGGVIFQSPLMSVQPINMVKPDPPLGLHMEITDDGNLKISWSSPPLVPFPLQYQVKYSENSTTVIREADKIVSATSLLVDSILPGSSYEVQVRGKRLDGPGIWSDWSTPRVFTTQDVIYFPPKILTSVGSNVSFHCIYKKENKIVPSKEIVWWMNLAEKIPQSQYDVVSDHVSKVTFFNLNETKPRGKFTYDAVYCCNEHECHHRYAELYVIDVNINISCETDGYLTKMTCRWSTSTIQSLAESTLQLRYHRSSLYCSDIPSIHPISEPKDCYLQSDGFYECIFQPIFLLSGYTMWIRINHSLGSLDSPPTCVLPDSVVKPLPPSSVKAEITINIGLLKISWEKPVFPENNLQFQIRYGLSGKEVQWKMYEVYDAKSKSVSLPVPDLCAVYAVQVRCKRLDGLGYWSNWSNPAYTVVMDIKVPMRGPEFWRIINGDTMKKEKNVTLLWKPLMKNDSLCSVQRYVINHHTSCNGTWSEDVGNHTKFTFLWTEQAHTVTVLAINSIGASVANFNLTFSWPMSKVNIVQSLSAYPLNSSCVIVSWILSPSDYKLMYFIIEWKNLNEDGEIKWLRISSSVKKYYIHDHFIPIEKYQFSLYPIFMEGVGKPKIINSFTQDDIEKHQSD", "assay": "FACS, secondary alone, HEK293/hLEPR-GPI, with 1 µM Leptin"}, "[2]": {"biological_target": "extracellular domain of human LEPR with an N-terminal myc-myc tag, GPI-anchored on HEK293 cells (human) (UniProt P48357)", "assay": "FACS, secondary alone, HEK293/hLEPR-GPI, no added Leptin"}}, "data": [{"substance": "Anti-mouse IgG secondary antibody alone", "values": [{"measurement": "Binding Ratio", "setting": "[1]", "value": 2, "unit": "fold"}, {"measurement": "Binding Ratio", "setting": "[2]", "value": 2, "unit": "fold"}]}, {"substance": "Anti-human IgG secondary antibody alone", "values": [{"measurement": "Binding Ratio", "setting": "[1]", "value": 3, "unit": "fold"}, {"measurement": "Binding Ratio", "setting": "[2]", "value": 3, "unit": "fold"}]}]}
